In patent US20230365647A1 (published 2023):

Molecular target: T1, PLY (W433F) toxoid (Streptococcus pneumoniae, UniProt P0C2J9 2-471)
T1 construct: also called Pdb PLY (W433F); Pdb (W433F)
Assay: immunofluorescence co-localization in human DCs

B1: Mannose receptor C type 1 on human monocyte-derived dendritic cells (receptor)
chain: LLDTRQFLIYNEDHKRCVDAVSPSAVQTAACNQDAESQKFRWVSESQIMSVAFKLCLGVPSKTDWVAITLYACDSKSEFQKWECKNDTLLGIKGEDLFFNYGNRQEKNIMLYKGSGLWSRWKIYGTTDNLCSRGYEAMYTLLGNANGATCAFPFKFENKWYADCTSAGRSDGWLWCGTTTDYDTDKLFGYCPLKFEGSESLWNKDPLTSVSYQINSKSALTWHQARKSCQQQNAELLSITEIHEQTYLTGLTSSLTSGLWIGLNSLSFNSGWQWSDRSPFRYLNWLPGSPSAEPGKSCVSLNPGKNAKWENLECVQKLGYICKKGNTTLNSFVIPSESDVPTHCPSQWWPYAGHCYKIHRDEKKIQRDALTTCRKEGGDLTSIHTIEELDFIISQLGYEPNDELWIGLNDIKIQMYFEWSDGTPVTFTKWLRGEPSHENNRQEDCVVMKGKDGYWADRGCEWPLGYICKMKSRSQGPEIVEVEKGCRKGWKKHHFYCYMIGHTLSTFAEANQTCNNENAYLTTIEDRYEQAFLTSFVGLRPEKYFWTGLSDIQTKGTFQWTIEEEVRFTHWNSDMPGRKPGCVAMRTGIAGGLWDVLKCDEKAKFVCKHWAEGVTHPPKPTTTPEPKCPEDWGASSRTSLCFKLYAKGKHEKKTWFESRDFCRALGGDLASINNKEEQQTIWRLITASGSYHKLFWLGLTYGSPSEGFTWSDGSPVSYENWAYGEPNNYQNVEYCGELKGDPTMSWNDINCEHLNNWICQIQKGQTPKPEPTPAPQDNPPVTEDGWVIYKDYQYYFSKEKETMDNARAFCKRNFGDLVSIQSESEKKFLWKYVNRNDAQSAYFIGLLISLDKKFAWMDGSKVDYVSWATGEPNFANEDENCVTMYSNSGFWNDINCGYPNAFICQRHNSSINATTVMPTMPSVPSGCKEGWNFYSNKCFKIFGFMEEERKNWQEARKACIGFGGNLVSIQNEKEQAFLTYHMKDSTFSAWTGLNDVNSEHTFLWTDGRGVHYTNWGKGYPGGRRSSLSYEDADCVVIIGGASNEAGKWMDDTCDSKRGYICQTRSDPSLTNPPATIQTDGFVKYGKSSYSLMRQKFQWHEAETYCKLHNSLIASILDPYSNAFAWLQMETSNERVWIALNSNLTDNQYTWTDKWRVRYTNWAADEPKLKSACVYLDLDGYWKTAHCNESFYFLCKRSDEIPATEPPQLPGRCPESDHTAWIPFHGHCYYIESSYTRNWGQASLECLRMGSSLVSIESAAESSFLSYRVEPLKSKTNFWIGLFRNVEGTWLWINNSPVSFVNWNTGDPSGERNDCVALHASSGFWSNIHCSSYKGYICKRPKIIDAKPTHELLTTKADTRKMDPSKPSSNVAGVVIIVILLILTGAGLAAYFFYKKRRVHLPQEGAFENTLYFNSQSSPGTSDMKDLVGNIEQNEHSVI
notes: also called MRC-1
binding result: no binding (tested: 0.2 µg/ml)
